The record followed here is the supplement of paper PMC5998384.

Data set [1] has as its system HeLa Kyoto. As to the kind of experiment: thermal stability score vs G1/S (z-score of summed log2 fold changes over temperatures); higher = more thermally stable than in G1/S.
The test system of data set [2] is HeLa Kyoto. Briefly: solubility in G1/S (NP-40 vs SDS abundance) (log2 ratio); higher = more soluble. Particulars: cell cycle stage: G1/S.
In data set [3] the test system is HeLa Kyoto. Briefly: melting temperature (median over replicates), in situ; higher = more thermally stable.
Data set [4] relates to HeLa Kyoto. Briefly: solubility change mitosis vs G1/S (difference of NP-40 vs SDS log2 ratios) (log2 ratio difference); higher = more soluble in mitosis.
[5] abbreviates: cell cycle stage: early G1 (4.5 h after nocodazole release).
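For melting temperature (median over replicates), in situ in this document: HeLa Kyoto cells synchronized by double thymidine or nocodazole block, proteins quantified by TMT10plex mass spectrometry, three independent biological replicates.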
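For solubility change mitosis vs G1/S (difference of NP-40 vs SDS log2 ratios) in this document: synchronized HeLa Kyoto cells (double thymidine block for G1/S, nocodazole release for mitosis), protein amounts in NP-40 versus SDS lysates quantified by mass spectrometry, three biological replicates.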
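For solubility in G1/S (NP-40 vs SDS abundance) in this document: HeLa Kyoto cells arrested at G1/S by double thymidine block, proteins quantified by TMT10plex mass spectrometry in mild NP-40 versus SDS extracts, three biological replicates.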
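For thermal stability score vs G1/S (z-score of summed log2 fold changes over temperatures) in this document: synchronized HeLa Kyoto cells, proteins quantified by TMT10plex mass spectrometry, three biological replicates, mitosis taken 0.5 h after nocodazole release, G1/S directly after double thymidine block.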

In the case of “MTKREAEELIEIEIDGTEKAECTEESIVEQTYAPAECVSQAIDINEPIGNLKKLLEPRLQCSLDAHEICLQDIQLDPERSLFDQGVKTDGTVQLSVQVISYQGIEPKLNILEIVKPADTVEVVIDPDAHHAESEAHLVEEAQVITLDGTKHITTISDETSEQVTRWAAALEGYRKEQERLGIPYDPIQWSTDQVLHWVVWVMKEFSMTDIDLTTLNISGRELCSLNQEDFFQRVPRGEILWSHLELLRKYVLASQEQQMNEIVTIDQPVQIIPASVQSATPTTIKVINSSAKAAKVQRAPRISGEDRSSPGNRTGNNGQIQLWQFLLELLTDKDARDCISWVGDEGEFKLNQPELVAQKWGQRKNKPTMNYEKLSRALRYYYDGDMICKVQGKRFVYKFVCDLKTLIGYSAAELNRLVTECEQKKLAKMQLHGIAQPVTAVALATASLQTEKDN [GABPA]”, the thermal stability score was found to be 0.986 in the data set on HeLa Kyoto [1] (setting [5]) and 1.79 with HeLa Kyoto [1] (cell cycle stage: mitosis). Further, the “solubility in G1/S (log2)” value in the data set with HeLa Kyoto [2] is 0.0182. Also, the values for the melting temperature in the data set on HeLa Kyoto [3] (cell cycle stage: G1/S) and in the data set on HeLa Kyoto [3] (cell cycle stage: mitosis) were 48 °C and 49.9 °C, respectively. In the data set with HeLa Kyoto [4], the “solubility change mitosis (log2)” value is -0.178.

Turning to “MTLDVGPEDELPDWAAAKEFYQKYDPKDVIGRGVSSVVRRCVHRATGHEFAVKIMEVTAERLSPEQLEEVREATRRETHILRQVAGHPHIITLIDSYESSSFMFLVFDLMRKGELFDYLTEKVALSEKETRSIMRSLLEAVSFLHANNIVHRDLKPENILLDDNMQIRLSDFGFSCHLEPGEKLRELCGTPGYLAPEILKCSMDETHPGYGKEVDLWACGVILFTLLAGSPPFWHRRQILMLRMIMEGQYQFSSPEWDDRSSTVKDLISRLLQVDPEARLTAEQALQHPFFERCEGSQPWNLTPRQRFRVAVWTVLAAGRVALSTHRVRPLTKNALLRDPYALRSVRHLIDNCAFRLYGHWVKKGEQQNRAALFQHRPPGPFPIMGPEEEGDSAAITEDEAVLVLG [PHKG2]”, the thermal stability score in the data set with HeLa Kyoto [1] (setting [5]) is -0.266; with HeLa Kyoto [1] (cell cycle stage: mitosis), 0.0815. The “solubility in G1/S (log2)” value with HeLa Kyoto [2] is -0.0283. The melting temperature in the data set with HeLa Kyoto [3] (cell cycle stage: G1/S) is 50.4 °C; with HeLa Kyoto [3] (cell cycle stage: mitosis) it was 50.7 °C. The “solubility change mitosis (log2)” value in the data set with HeLa Kyoto [4] was -0.298.

“MTLQWAAVATFLYAEIGLILIFCLPFIPPQRWQKIFSFNVWGKIATFWNKAFLTIIILLIVLFLDAVREVRKYSSVHTIEKSSTSRPDAYEHTQMKLFRSQRNLYISGFSLFFWLVLRRLVTLITQLAKELSNKGVLKTQAENTNKAAKKFMEENEKLKRILKSHGKDEECVLEAENKKLVEDQEKLKTELRKTSDALSKAQNDVMEMKMQSERLSKEYDQLLKEHSELQDRLERGNKKRL [BCAP29]”: the values for the thermal stability score in the data set on HeLa Kyoto [1] (setting [5]) and with HeLa Kyoto [1] (cell cycle stage: mitosis) were -4.11 and -5.19, respectively. Further, in the data set on HeLa Kyoto [2], the “solubility in G1/S (log2)” value was -0.242. The melting temperature came out at 55.3 °C in the data set on HeLa Kyoto [3] (cell cycle stage: G1/S) and 52.6 °C in the data set on HeLa Kyoto [3] (cell cycle stage: mitosis). For the same sequence, the “solubility change mitosis (log2)” value in the data set with HeLa Kyoto [4] was -0.00377.

As to “MTPLCPRPALCYHFLTSLLRSAMQNARGARQRAEAAVLSGPGPPLGRAAQHGIPRPLSSAGRLSQGCRGASTVGAAGWKGELPKAGGSPAPGPETPAISPSKRARPAEVGGMQLRFARLSEHATAPTRGSARAAGYDLYSAYDYTIPPMEKAVVKTDIQIALPSGCYGRVAPRSGLAAKHFIDVGAGVIDEDYRGNVGVVLFNFGKEKFEVKKGDRIAQLICERIFYPEIEEVQALDDTERGSGGFGSTGKN [DUT]”, the thermal stability score with HeLa Kyoto [1] (setting [5]) was 0.243; in the data set on HeLa Kyoto [1] (cell cycle stage: mitosis), -0.204. Further, the “solubility in G1/S (log2)” value in the data set with HeLa Kyoto [2] was determined as 0.483. Further, the melting temperature amounted to 53.2 °C in the data set on HeLa Kyoto [3] (cell cycle stage: G1/S) and 53.5 °C in the data set on HeLa Kyoto [3] (cell cycle stage: mitosis). Further, the “solubility change mitosis (log2)” value with HeLa Kyoto [4] is -0.0703.

For “MTPPPPPPPPPGPDPAADPAADPCPWPGSLVVLFGATAGALGRDLGSDETDLILLVWQVVEPRSRQVGTLHKSLVRAEAAALSTQCREASGLSADSLARAEPLDKVLQQFSQLVNGDVALLGGGPYMLCTDGQQLLRQVLHPEASRKNLVLPDMFFSFYDLRREFHMQHPSTCPARDLTVATMAQGLGLETDATEDDFGVWEVKTMVAVILHLLKEPSSQLFSKPEVIKQKYETGPCSDSTVPCPYSSKADVVDSETVVRARGLPWQSSDQDVARFFKGLNVARGGVALCLNAQGRRNGEALIRFVDSEQRDLALQRHKHHMGVRYIEVYKATGEEFVKIAGGTSLEVARFLSREDQVILRLRGLPFSAGPTDVLGFLGPECPVTGGTEGLLFVRHPDGRPTGDAFALFACEELAQAALRRHKGMLGKRYIELFRSTAAEVQQVLNRYASGPLLPTLTAPLLPIPFPLAPGTGRDCVRLRGLPYTATIEDILSFLGEAAADIRPHGVHMVLNQQGRPSGDAFIQMTSAERALAAAQRCHKKVMKERYVEVVPCSTEEMSRVLMGGTLGRSGMSPPPCKLPCLSPPTYTTFQATPTLIPTETAALYPSSALLPAARVPAAPTPVAYYPGPATQLYLNYTAYYPSPPVSPTTVGYLTTPTAALASAPTSVLSQSGALVRMQGVPYTAGMKDLLSVFQAYQLPADDYTSLMPVGDPPRTVLQAPKEWVCL [ESRP2]”, the thermal stability score in the data set with HeLa Kyoto [1] (setting [5]) was 1.55; with HeLa Kyoto [1] (cell cycle stage: mitosis), 2.39. The “solubility in G1/S (log2)” value in the data set on HeLa Kyoto [2] amounted to 0.0652. Moreover, the melting temperature turned out to be 45.2 °C in the data set with HeLa Kyoto [3] (cell cycle stage: G1/S) and 47.7 °C in the data set with HeLa Kyoto [3] (cell cycle stage: mitosis). In addition, the “solubility change mitosis (log2)” value with HeLa Kyoto [4] is 0.0705.

Take “MTPPRLFWVWLLVAGTQGVNDGDMRLADGGATNQGRVEIFYRGQWGTVCDNLWDLTDASVVCRALGFENATQALGRAAFGQGSGPIMLDEVQCTGTEASLADCKSLGWLKSNCRHERDAGVVCTNETRSTHTLDLSRELSEALGQIFDSQRGCDLSISVNVQGEDALGFCGHTVILTANLEAQALWKEPGSNVTMSVDAECVPMVRDLLRYFYSRRIDITLSSVKCFHKLASAYGARQLQGYCASLFAILLPQDPSFQMPLDLYAYAVATGDALLEKLCLQFLAWNFEALTQAEAWPSVPTDLLQLLLPRSDLAVPSELALLKAVDTWSWGERASHEEVEGLVEKIRFPMMLPEELFELQFNLSLYWSHEALFQKKTLQALEFHTVPFQLLARYKGLNLTEDTYKPRIYTSPTWSAFVTDSSWSARKSQLVYQSRRGPLVKYSSDYFQAPSDYRYYPYQSFQTPQHPSFLFQDKRVSWSLVYLPTIQSCWNYGFSCSSDELPVLGLTKSGGSDRTIAYENKALMLCEGLFVADVTDFEGWKAAIPSALDTNSSKSTSSFPCPAGHFNGFRTVIRPFYLTNSSGVD [LGALS3BP]”: the thermal stability score with HeLa Kyoto [1] (setting [5]) is 1.36; in the data set on HeLa Kyoto [1] (cell cycle stage: mitosis), 2.15. Also, the “solubility in G1/S (log2)” value in the data set with HeLa Kyoto [2] is -0.0572. In addition, the melting temperature with HeLa Kyoto [3] (cell cycle stage: G1/S) turned out to be 54.5 °C; with HeLa Kyoto [3] (cell cycle stage: mitosis), 55.9 °C. For the same sequence, the “solubility change mitosis (log2)” value in the data set with HeLa Kyoto [4] is -0.127.
